From a protein production outcome set (Wang et al. 2014) come the findings set out here.

A short description of this series: label from the status in PepcDB records.
As for “MISEIIEFLESNFFYLHPGYTPLNTVVFGIVLGIAVLIILRMFRWLKKDPGELLVPLLPFIFLGSGARALVDNGIYPLTHLLVTPGIYILVGLTTIATLIAAVKLEETRGWDYRKLIFATGSVLAAPNLISIRHIDPVPFLSVLGVFSVFSAAFYALSLRWEFLRGRMNLPVIYAHLFDASSTYVAVDWYGYIEQHVLPSALTGLTGTAMVMFPLKMAVILTALYAIDRYVESDMDSEALKLVIFILGLAPGLRNFLSLSMAV”, the protein production entry is “failed”.
“MISFSVMALVFGVVFLAELPDKTALAGLVLGTRYRASYVFAGVAAAFALHVALAVAAGSVLTLLPQQIVHALTGVLFLGGAAVLLMKKGEGEEEIRKPENQSFWKVSSAGFMLILVAEFGDLTQIMTANLAARYDDPLSVGLGAVLALWAVAGLGIVGGRALMKRVPLRLITKVAALLMLALGAWSLYEAVAG”: the protein production result is given as “failed”.
Under “MISKHQAVKKIFDQISDKYDLIDTIISLGLDQRWRRSLISNLKLMPGLQCLDCGAGSGKVTELIMESCDSCSVTALDITDSMFNPELTKRCKFVVSPAESLPFSDETFDRVSSAFLTRNLADVDKYFSEVYRVLKPGGIFVNLDIFNPTKPVFSQFFSLYFYRMVPFFGNHATHSRNYSYLANSVKFFYSPFILSKKLESKGFIVEPKDLFFGSVFMHIAQKKLEHHHHHH” stands “not failed”; under “MISKVIEALAVFTTSVISSMGYGGIVLLMAIESACIPLPSEIIMPFAGYLVYRGEMTLHGAALAGAIGCVVGSIPAYYLGQFGGRPLIEKYGRYVLLSHKELDLADRLFQRWGQWVVFAGRLLPVVRTFIAFPAGVSRMPMGKFIAYTFVGSYPWCYALAWVGEWAGEAWHTDPRVKAVYHRFELVIVVAGVLAVAWFVWHKVKEARRARVPAAADEG”, “failed”.
Under “MISLKNFGLLFWKRFSENKLNQVAGALTYSTMLAMVPLVMVIFSIFSAFPVFNEVTGELKEMIFTNFAPSASDMVGEYIDQFVSNSKKMSAVGIVSLIAVALMLINNIDRTLNSIWHNSQSRSPLSSFAIYWMILTLGPLIIGVSIGISSYIKIMFEQSEHLSLGLKLLSFVPFLFTWFIFTLIYTVVPNKKVKIKHSAYGAFLAAIFFTLGKQAFTWYIVTFPSYQLIYGAMATLPIMLLWIQISWLVVLVGAQLASTLDEIGEQIEQ” stands “failed”; under “MISSATKTLQTNNKTIYVAILSTLTFFLFLDYIPGLQAWSAWVTPPVALFLGLIFALTCGQAHPKFNKKTSKYLLQYSVVGLGFGMNLQSALASGKEGMEFTVISVVGTLLIGWFIGRKIFKIDRNTSYLISSGTAICGGSAIAAIGPVLRAKDSEMSVALGTIFILNAIALFIFPAIGHALDMTEHQFGTWAAIAIHDTSSVVGAGAAYGEEALKVATTIKLTRALWIIPMAFATSFIFKSKGQKISIPWFIFFFILAMIANTYLLNGVPQLGAAINGIARKTLTITMFFIGASLSLDVLRSVGVKPLIQGVLLWVVISLSTLAYIYFV”, “failed”.
The same measure for “MISSLKLTEMCTHCGFCLETCPTYVVTRNEVHSPRGRIEAVRIGINSTGFETCMYCRLCETACPAGVKYAQIITPVRKSSLKKTVMEKMLENPKLLAKSLKLLSKANSYPEVQRFVKFVKPNEVSEPLETDGEGDIILFPGCIESVIFRKTVEKAYKYLGKKYKVKIINGCCGLAHISNGNYEGAKKLAIRLAEKVKGKKVITLQSNCAAFMKEYKEWFGIEINAYDFAEFLIKEGIELPKVNDTFTVHYPCHAYRQKLVSHIRNVAEKMGIKIREMEDPHFECGAGGDYWLSHPKLSDMVMNVKRGKIAKSEAKKVIVTNSVCALAIRSMGYDVYHIADLLDT”: “failed”; for “MISTLNEIMKCIEDNDTIIIHRHVRPDPDAYGSQLGLKYYIQQKFPQKQVFAVGEAESSLSFIGELDNIDDKTYQDALVIVCDTANAPRIDDERYSTGSKLIKIDHHPAVDQYGDINLVNTNASSTSEIIYDLISHFNDEAIVNKDIASVLYLGIVGDTGRFLFNNTSEHTMEIAGKLIGHDIDHNALLNKMMEKDPKMLPFQGYVLQHFELMDDGFCQVKITEDVLEQFGIQPNEASQFVNTIADIKGLKIWVFAVDEGSEIRCRLRSKGQLIINDIAQDFGGGGHPNASGVSVNSWDEFEQLATALRTKLN”: “failed”.
As for “MISWRDRLTKALPQIAVVVHDLLMVWVCWQLLHAGRYSMLRDAPNLPLWDWRTAVVLVAQGLVFWKMGLYRGLWRFASVPDLWNIFKASFLGLVAIVLALAYDRLDGVPLSVLVVYPFALSALLGTPRLLYRAWKDYQIAHSGDAAQRVLILGAGRAAEGLVRDLRRTGAFVPVGYLDDANNLHGAKIQGLNVLGNLDQAAAIAKETAAKLLVIAIPSLDASGMQRVVAICESTGLPFRMVPKLINVLEGRSLPGELKEVAIEDLLNRKPVTPDWRLIRDWLTNKTVMVTGAGGSIGSEVCRQCARHGARRIVLLEIDELALLTIDSDLRRLFPDIEVVRVLGDCGDPAVVAHALNTATPDAVFHAAAYKQVPLLEEQLREAVRNNVLATENVARACQRARIETFVFISTDKAVEPVNVLGASKRYAEMICQSLDARDAPTRFITVRFGNVLDSAGSVVPLFREQIRQGGPVTVTHPDVTRYFMTIPEACQLVIQAAASASHGAIYTLDMGEPVPIRLLAEQMIRLAGKQPGKDVAILYTGLRPGEKLHETLFYSDEAYRPTAHPKILEAGVREFSHEQVLQLVMRLREAVNRYDIKAMETVLGSLMPDFAAARRKVDARSDTVVPFPAREVRRL”, the protein production result is “failed”.
Under “MITDIPWNRGEWTNQPAAVVEQAGDLLVTAAESSDAWRVTSYGFIHDTEHALLAPLPQDSAMEVEFTAAFSQQFDQAGIFVRISAEHWIKAGVEFADGAAQVGAVVTNRFSDWSLAPVPDWNGERVRMRVSRSGDALTIRAASGSNELRLVRVVPLAPDLVTVAGPFTCAPTRAGLTVPFHSWRAKPADSQLH” stands “failed”; under “MITFKEFVDYWFEAYASTAVKPSTQKRYRQLLKPALRAIGNKPLNKVKPLDIQNIYIALAGTQSNCTILKLHRLLHEIFKHAQMWEYISDNPVKKVVPPTPELEHHHHHH”, “not failed”.
Under “MITIDPEYFEILKEFGAERVVRCYQCGTCTGICPVSTTDASFPRKPVLLSRFGVGEVIENFEEAWLCLSCNLCTEFCPRDVKPSETMLAIKRVLVENGKTPPYIRDFFQLEHHHHHH” stands “failed”; under “MITIEISINLELIISFYLLFILGANNVANAIGTAYASRATTYRNLLILFSISVIIGSLFAKNVGSTVNSLSSDALTALIISALVMTLSTYKKVPISLHTVIICSLIGLNFNSSNLYVFGEILLSWILSPIIAVVIAYILYSAYEKIDISILKKITMIRYFLLISAAVVAFNLGSNDLPTVLGTFTTSQIIYIIGAIFLCLGAYLYGNRVSETLSMITNLSVSSAFIAQLSGGLAVTIFTALGMPVSTTQAIVGGILGVGLTKGIKTVRWKVLKNIIFWWVVAPIIALIIGFIINRMI”, “failed”; under “MITKVTARNNKITPVELLNQKFGNKINLGNFADAVFTDAAFKNVAGIANLPMKAPVMQVLMENCIVSKYLKQFVPDRSVCFVEEGQKFYIVLEDGQKIEVPEDVNKALKATVSDVKHWAGYLTEDGEHVIDLLKPAPGPHFYVNLLIGNRLGFKRTLQTTPKSVVDRFGRGSFRSHAATQVLATRFDMRQEENGFPANRQFYLYEDGKQIFYSALIDDNIVEATCKHSCNRTVIKYKTACNLEITRTIFLVPHKKGFPLATELQRIEIKNASDKARNLSITYTGMFGTGAVHAIFEDVTYTNVIMQSAALYNDKGEFIGITPDYYPEEFKQDTRFVTMIVRNGDEKSFPQSFCTDYNDFVGTGTLEHPAGGCNLNNKLNRKGPGFFALGAPFTVEPGKTVIIDTFTGLSSSKDNENYSDAVMLRELDNLLRYFEKSESVEETLNEIINFHENYGKYFQFNTGNKLFDSGFNRNLAFQVLYQTFMSRSFGQTQKGYREIGFREIQDLFASMYYFINIGYQDFVKELLFEWTANVYKMGYANHNFYWVGKQPGLYSDDSLWLLQAYYRYIIYTKDTSVLNEEVPVADGNNEKRAVRETLKAIIQYSACISVGDHGLPLLDLADWNDCLKIASNSIDGATKEKLYYEQLKKTNGKYGDRFMSDYSESVMNAFLLKLAIDHLAEIATLDNDTQLAQQMSELSKEVTDRIQKHAWKENFFARVLINRYKDGSYTYLGAKGDKLSADPNIDGVYFLNSFAWSVLSDVATDEQIAIMVDVIKKHLLTPYGLRLVTPADLNKIANDTATGHYFFGDRENGAVFKHASMMAVAALIKAAKKVKDNELAKEMARIAYFMIDLVLPYKNLENPFQVAGNPRICTQYINTDTGENIGPLLSGTATWLNLNLISLAGIEYTRDGISFNPILREEETQLNFTLKAPKCSYKFSITKPVGFARMESSEYELFVDGQKIDNTVIPMYTDEKEHIVTLKFK”, “not failed”.
Under “MITNNVSLLIMGIDENQERQKEYNGAFHTDALLLATFNKDDKTVKLTSIPRDTYTYVPVEKKKDKITHAYGSGFVKNGKDGGPQTSVEAVEKLLQVPVDYFVKFNFNSFTKIVDGLDGIEVDVPVEFTEQNSKDEPDAIHLKKGLQKLTGEEALALARTRHIDSDAMRGQRQQLVIEAILSKLKSVGSITKLEKIVEAVDGDFKTNLAMDDILSFYKYGLNCSIEKIQLAGDDLYLPNGPNGQRVYYYNPNKKDLQSLSNTLRTHLGLSEKQIEENLEHHHHHH” stands “not failed”.
As for “MITSTNKEAYPNTLIVILGHDEGRSSFEEKEDVTRVTNDKGETIGFNFFNVDKLIDFDKLPNGPVKLSDDELEALNKKLAEVGFDDKLEYGKPTLVYGYVKTCEKHPDSDHLHVTTIEVGDGEEHQIVCGAPNIAQGQKVVVALPGTLMPNGAQIWPGKLRGVDSYGMICSARELGLPHAPQKRGIMVVPDSFEVGAEFEPTKCDELIASGEITLLEHHHHHH”, the protein production entry is “not failed”.
Take “MITVFGLKSKLAPRREKLAEVIYNSLHLGLDIPKGKHAIRFLCLEKEDFYYPFDRSDDYTVIEINLMAGRMEGTKKRLIKMLFSELEYKLGIRAHDVEITIKEQPAHCWGFRGMTGDEARDLDYDIYV”: the protein production result is recorded as “not failed”.
As to “MITVVGGTFSKLHKGHKALLNTAIDTGNEVVIGLTSDEYVKKNKVYPAIPYSVRYRTLYNYMIKRTNKFRIRQIDDRNGNAPYEKDYEVIVVSPETYPRSLKINEIRISNGLPPLKIIRVPYVLAQDLFPISSTRIINGEID”, the protein production entry is reported as “not failed”.
Under “MITYPKQMRDSGFKFEFFCDQGGYYQHVMDHLISCTQRQETPVNISNIPKCKAVLVTSLTGEIIKAQGRHLDMLLIVFED” stands “failed”; under “MIVAWTLGIFGDDLPKGGARETGLLVHVSAGLLILAALIMRLVWRAAVPPPPPEPNEFRRWLGAFADPSARLFHYTLYALLVVVPVAGIVTQFARGEALPLLGIYEISSPWIRDRAFAHSVKEIHEIAAHALVFVAFFHAGAALIHHIVFRDNTLNRMLPRSK”, “failed”.
As for “MIVCKNRIGTMKRLGRISLRVLLLAGVLLSLLLMAMTLLYPPVEKGGLFFMLAIEVALLFFLGFLYNKVVLPIRAVGDGMDMLRSQDYATTLAPVGQPDADRVVELYNALMHSLKKERLRLEERDNFLSLVMDVSPVGFVVLDFDMRVVSVNPAARRLLDLPDDYIPIERPLEEVCAKIPFGPDELGEGESRTWRLPTAEVRRITRMRFFDRSFSRLFFSIETLTEELHSAEKEAYEKLIRLIAHEVNNSTAGIIGVLNAVGDAFDDTPHTPEGEVSEAIALCRDRCMAMSRFITRFAEVVKLPDPTLSSVDLVPLCERCILLMQPLAVETGVKMKMCKEQDSCLVRCDAEQIEQVVINLLRNAIESFAQQNDLAVSATKTVLLCLDRHNLLVEDNGQPISDDVATRLFTPFFSTKPNGQGIGLVVIREVLTRHGWSFSLTTDADGRTRFRMAWP”, the protein production entry is recorded as “failed”.
Take “MIVEERIYRIRGGKMQEYLKLVREEGIAIQAPILGNLIGYFVTDIGPLSQVIHMWGYASLDDRAERRGKLAEDQRWQAFIPRLSVLIESSENRILLPTDFSPLR”: the protein production result is recorded as “not failed”.
